Results: patent publication US20250026827A1 (Alector, published 2025)
Numbering of substitutions follows the chain as printed.

T1: mouse SIRPα D1-Fc (mouse, UniProt P97797 32-150, limits assumed)
T1 construct: domain: D1
T1 sequence (looked up): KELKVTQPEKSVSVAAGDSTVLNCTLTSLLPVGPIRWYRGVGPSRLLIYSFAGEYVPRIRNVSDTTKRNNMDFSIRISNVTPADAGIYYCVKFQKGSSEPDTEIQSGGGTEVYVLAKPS

T2: mouse SIRPβ1 on CHO cells (mouse)
T2 construct: Whole entry
T2 chain: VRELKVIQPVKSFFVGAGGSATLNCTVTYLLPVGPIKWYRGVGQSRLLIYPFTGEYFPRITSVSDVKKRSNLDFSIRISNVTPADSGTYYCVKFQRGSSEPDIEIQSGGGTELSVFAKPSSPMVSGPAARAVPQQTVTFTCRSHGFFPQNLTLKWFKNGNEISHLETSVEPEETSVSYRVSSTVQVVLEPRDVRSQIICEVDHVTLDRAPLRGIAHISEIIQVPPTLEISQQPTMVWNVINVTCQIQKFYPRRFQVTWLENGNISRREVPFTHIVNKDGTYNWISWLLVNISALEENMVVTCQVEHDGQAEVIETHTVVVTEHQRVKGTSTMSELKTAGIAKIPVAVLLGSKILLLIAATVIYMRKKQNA

T3: mouse SIRPα on cells (mouse, UniProt P97797 32-513)
T3 construct: whole, on cells
T3 sequence (looked up): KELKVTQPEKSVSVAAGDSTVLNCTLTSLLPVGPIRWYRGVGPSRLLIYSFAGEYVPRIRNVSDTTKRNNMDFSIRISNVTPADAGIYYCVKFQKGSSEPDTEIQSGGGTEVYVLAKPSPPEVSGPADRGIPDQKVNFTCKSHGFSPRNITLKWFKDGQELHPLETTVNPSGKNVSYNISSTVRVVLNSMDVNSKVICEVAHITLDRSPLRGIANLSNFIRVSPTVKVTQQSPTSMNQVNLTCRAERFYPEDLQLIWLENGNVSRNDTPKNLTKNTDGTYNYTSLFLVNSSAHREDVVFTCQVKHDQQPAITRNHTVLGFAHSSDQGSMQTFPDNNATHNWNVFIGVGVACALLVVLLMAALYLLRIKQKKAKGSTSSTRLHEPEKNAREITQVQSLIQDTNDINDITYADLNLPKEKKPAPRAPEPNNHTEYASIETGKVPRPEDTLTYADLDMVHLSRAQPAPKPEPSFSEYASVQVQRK

B1: SB-5 (antibody, V domains shown)
VH: not shown
VL: EIVLTQSPATLSLSPGERATITCRASQSVSSYLAWYQQKPGQAPRLLIYDASNRATGIPARFSGSGSGTDFTLTISSLEPEDFAVYYCQQRLFHPPTFGGGTKVEIK
notes: IgG
B2: SB-14 (antibody, V domains shown)
VH: QVQLVQSGAEVKKPGSSVKVSCKASGGTFSSYAISWVRQAPGQGLEWMGGIIPIFGTASYAQKFQGRVTITADESTSTAYMELSSLRSEDTAVYYCARDRGGVGFDYWGQGTLVTVSS
VL: B1 VL with L4M, I21L, T22S, A51S, R91F, L92S, F93Y, H94Y, P96I
notes: IgG
B3: SB-13 (antibody, V domains shown)
VH: QVQLQESGPGLVKPSETLSLTCTVSGGSISSYYWSWIRQPPGKGLEWIGSIYYSGSTNYNPSLKSRVTISVDTSKNQFSLKLSSVTAADTAVYYCARGDTSGGAYFDLWGRGTLVTVSS
VL: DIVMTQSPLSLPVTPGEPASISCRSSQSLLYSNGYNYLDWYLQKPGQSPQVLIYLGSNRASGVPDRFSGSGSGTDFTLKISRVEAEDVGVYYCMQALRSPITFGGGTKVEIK
notes: IgG
B4: SB-50 (antibody, V domains shown)
VH: QVQLVQSGAEVKKPGSSVKVSCKASGGTFSSYAISWVRQAPGQGLEWMGGIIPIFGTANYAQKFQGRVTITADESTSTAYMELSSLRSEDTAVYYCAREGGGHASYHYYGMDVWGQGTTVTVSS
VL: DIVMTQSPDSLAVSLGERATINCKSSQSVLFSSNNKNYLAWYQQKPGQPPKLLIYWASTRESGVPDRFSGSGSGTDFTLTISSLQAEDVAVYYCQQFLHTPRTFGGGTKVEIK
notes: IgG
B5: SB-10 (antibody, V domains shown)
VH: QVQLVQSGAEVKKPGSSVKVSCKASGGTFSSYAISWVRQAPGQGLEWMGGIIPIFGTANYAQKFQGRVTITADESTSTAYMELSSLRSEDTAVYYCARGVPRGDLGMDVWGQGTTVTVSS
VL: not shown
notes: IgG
B6: SB-6 (antibody, V domains shown)
VH: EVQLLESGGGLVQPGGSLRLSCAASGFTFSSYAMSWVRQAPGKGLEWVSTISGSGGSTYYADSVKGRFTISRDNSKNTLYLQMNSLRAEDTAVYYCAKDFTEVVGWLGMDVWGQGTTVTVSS
VL: EIVLTQSPGTLSLSPGERATLSCRASQSVSSSYLAWYQQKPGQAPRLLIYGASSRATGIPDRFSGSGSGTDFTLTISRLEPEDFAVYYCQQSGHLPITFGGGTKVEIK
notes: IgG
B7: SB-41 (antibody, V domains shown)
VH: QLQLQESGPGLVKPSETLSLTCTVSGGSISSSSYYWGWIRQPPGKGLEWIGSIYYSGSTYYNPSLKSRVTISVDTSKNQFSLKLSSVTAADTAVYYCARVGQYPIYGMDVWGQGTTVTVSS
VL: DIQMTQSPSSLSASVGDRVTITCQASQDITNYLNWYQQKPGKAPKLLIYDASNLETGVPSRFSGSGSGTDFTFTISSLQPEDIATYYCQQADNFPYTFGGGTKVEIK
notes: IgG
B8: SB-49 (antibody, V domains shown)
VH: QLQLQESGPGLVKPSETLSLTCTVSGGSISSSDYYWGWIRQPPGKGLEWIGSIYYSGSTYYNPSLKSRVTISVDTSKNQFSLKLSSVTAADTAVYYCARGPTGYKDKWRYYYGMDVWGQGTTVTVSS
VL: B7 VL with A91Y, D92F, N93H, F94P, Y96L
notes: IgG
B9: SB-39 (antibody, V domains shown)
VH: QVQLQESGPGLVKPSETLSLTCAVSGYSISSGYYWAWIRQPPGKGLEWIGSIYHSGSTYYNPSLKSRVTISVDTSKNQFSLKLSSVTAADTAVYYCARGGSNYGDYGRFDYWGQGTLVTVSS
VL: DIQMTQSPSSLSASVGDRVTITCRASQSISSYLNWYQQKPGKAPKLLIYGASSLQSGVPSRFSGSGSGTDFTLTISSLQPEDFATYYCQQSYDFPLTFGGGTKVEIK
notes: IgG
B10: SB-32 (antibody, V domains shown)
VH: QVQLQESGPGLVKPSETLSLTCTVSGGSISSYYWSWIRQPPGKGLEWIGYIYSSGSTNYNPSLKSRVTISVDTSKNQFSLKLSSVTAADTAVYYCARGDSSSGGLDLWGRGTLVTVSS
VL: not shown
notes: IgG
B11: SB-30 (antibody, V domains shown)
VH: QVQLQESGPGLVKPSQTLSLTCTVSGGSISSGGYYWSWIRQHPGKGLEWIGYIYYSGSTVYNPSLKSRVTISVDTSKNQFSLKLSSVTAADTAVYYCAREGPGYPSYFDPWGQGTLVTVSS
VL: B6 VL with Y33F, S92F, G93L, H94S, L95S, I97W, I107N, K108Q
notes: IgG

biological target: T4, human SIRPα domain 1 (D1) Fc fusion (human, UniProt P78324 32-149); assay: Octet
T4 construct: also called human SIRPα D1-Fc; Human SIRPα Fc; not shown: C-terminal human IgG1 Fc

binding result | Binder
no binding (tested: 100 nM) | B1
no binding (tested: 100 nM) | B2
no binding (tested: 100 nM) | B3
no binding (tested: 100 nM) | B4
no binding (tested: 100 nM) | B5
no binding (tested: 100 nM) | B6

biological target: T1, mouse SIRPα D1-Fc; assay: Octet
Description: Briefly, Octet affinity measurements were performed by loading IgGs on-line onto AHQ sensors. Sensors were equilibrated off-line in assay buffer for 30 min and then monitored on-line for 60 seconds for baseline establishment. For avid binding measurement, sensors with loaded IgGs were exposed to 100 nM antigen (human SIRPα domain 1 (D1) Fc fusion or SIRPβ1 domain 1 (D1) Fc fusion) for 3 min, and then transferred to assay buffer for 3 min for off-rate measurement. Additional avid binding was determined by loading biotinylated SIRPβ1 monomer on SA sensors and exposing to 100 nM IgG in solution. Monovalent binding measurements were obtained by loading human SIRPα- or SIRPβ1-Fc fusion antigens onto AHQ sensor, followed by exposure to 100 nM anti-SIRPβ1 antibody Fab. Additional monovalent measurements were made by loading biotinylated human SIRPα or SIRPβ1 monomer to SA sensor followed by exposure to 100 nM Fab in solution. Kinetics data were fit using a 1:1 binding model in the data analysis software provided by ForteBio (ForteBio Data Analysis Software 7.0).

binding result | Binder
no binding (tested: 100 nM) | B1
no binding (tested: 100 nM) | B2
no binding (tested: 100 nM) | B3
no binding (tested: 100 nM) | B4
no binding (tested: 100 nM) | B7
no binding (tested: 100 nM) | B8
no binding (tested: 100 nM) | B5
no binding (tested: 100 nM) | B9
no binding (tested: 100 nM) | B10
no binding (tested: 100 nM) | B6
no binding (tested: 100 nM) | B11

biological target: T5, human SIRPα on cells (human, UniProt P78324 31-504); assay: flow cytometry;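 as to FOB: antibodies tested at 1 µg/ml for 30 min on ice against receptor-expressing cells, detected with a PE-labelled secondary antibody, read as mean fluorescence intensity relative to background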
T5 construct: Whole entry

binding result | Binder
no binding (tested: 1 ug/ml) | B1
no binding (tested: 1 ug/ml) | B2
no binding (tested: 1 ug/ml) | B3
no binding (tested: 1 ug/ml) | B4
no binding (tested: 1 ug/ml) | B5
no binding (tested: 1 ug/ml) | B6

Biological target: T2, mouse SIRPβ1 on CHO cells
Assay: flow cytometry;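 as to FOB: antibodies tested at 1 µg/ml for 30 min on ice against receptor-expressing cells, detected with a PE-labelled secondary antibody, read as mean fluorescence intensity relative to background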

binding result | Binder
no binding (tested: 1 ug/ml) | B1
no binding (tested: 1 ug/ml) | B2
no binding (tested: 1 ug/ml) | B3
no binding (tested: 1 ug/ml) | B4
no binding (tested: 1 ug/ml) | B7
no binding (tested: 1 ug/ml) | B8
no binding (tested: 1 ug/ml) | B5
no binding (tested: 1 ug/ml) | B9
no binding (tested: 1 ug/ml) | B10
no binding (tested: 1 ug/ml) | B6
no binding (tested: 1 ug/ml) | B11

biological target: T3, mouse SIRPα on cells; assay: flow cytometry;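 as to FOB: antibodies tested at 1 µg/ml for 30 min on ice against receptor-expressing cells, detected with a PE-labelled secondary antibody, read as mean fluorescence intensity relative to background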

binding result | Binder
no binding (tested: 1 ug/ml) | B1
no binding (tested: 1 ug/ml) | B2
no binding (tested: 1 ug/ml) | B3
no binding (tested: 1 ug/ml) | B4
no binding (tested: 1 ug/ml) | B7
no binding (tested: 1 ug/ml) | B8
no binding (tested: 1 ug/ml) | B5
no binding (tested: 1 ug/ml) | B9
no binding (tested: 1 ug/ml) | B10
no binding (tested: 1 ug/ml) | B6
no binding (tested: 1 ug/ml) | B11

biological target: T6, human SIRPβ1 isoform 1 on cells (human, UniProt O00241 30-398); assay: flow cytometry;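 also: antibodies tested at 1 µg/ml for 30 min on ice against receptor-expressing cells, detected with a PE-labelled secondary antibody, read as mean fluorescence intensity relative to background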
T6 construct: On CHO cells (low level), on BWZ/BW5147.G.1.4 cells (reporter cells co-express human DAP12) or on primary human myeloid cells; also called huSIRPβ1; BWZ-huSIRPβ1
T6 sequence (O00241 30-398): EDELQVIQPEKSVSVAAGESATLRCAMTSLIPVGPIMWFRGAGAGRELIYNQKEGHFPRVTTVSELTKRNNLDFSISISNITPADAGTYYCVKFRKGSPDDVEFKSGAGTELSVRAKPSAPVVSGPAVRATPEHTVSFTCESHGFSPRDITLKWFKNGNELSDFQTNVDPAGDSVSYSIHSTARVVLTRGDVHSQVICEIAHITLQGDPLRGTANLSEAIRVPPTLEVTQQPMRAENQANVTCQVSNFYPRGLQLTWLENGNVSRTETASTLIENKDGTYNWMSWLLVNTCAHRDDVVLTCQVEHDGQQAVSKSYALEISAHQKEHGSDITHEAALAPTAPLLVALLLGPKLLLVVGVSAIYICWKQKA
Description: (§1) Initial characterization of anti-SIRPβ1 antibodies involved determining their ability to bind cell lines expressing human or mouse SIRPβ1. Cells were harvested, plated at 10⁶/ml in a 96-well plate, washed, and incubated in 100 μl FACS buffer containing 1 μg/ml anti-SIRPβ1 antibody for 0.5 hour on ice. Cells were then washed twice and incubated in 100 μl FACS buffer containing 0.5 μg/ml PE-conjugated secondary antibody for 30 minutes on ice. Cells were washed twice in cold FACS buffer and acquired on a BD FACS Canto. Data analysis and calculation of mean fluorescence intensity (MFI) values or 00 positive cells was performed with FlowJo (TreeStar) software version 10.0.7.
(§2) As a negative control, the anti-SIRPβ1 antibodies were also screened for surface binding to CHO cells overexpressing recombinant mouse SIRPβ31. […] Given the high sequence similarity between receptors of the SIRPβ family, anti-SIRPβ1 antibodies were also screened for cross-reactivity to human and mouse SIRPα.

FOB [fold over background] | Binder
1.6 | B1
4.5 | B2
1.9 | B3
2.8 | B4
1.7 | B7
3.4 | B8
3.8 | B5
5 | B9
1.5 | B10
4.3 | B6
1.7 | B11

biological target: T5, human SIRPα on cells; assay: flow cytometry; remark: another data set of the same source
Description: as §1, §2

FOB [fold over background] | Binder
2 | B1
2.5 | B2
1.9 | B3
2.5 | B4
2.2 | B7
2.7 | B8
2.4 | B5
2 | B9
2.2 | B10
1.2 | B6
2.1 | B11

Biological target: T2, mouse SIRPβ1 on CHO cells
Assay: flow cytometry
Remark: another data set of the same source
Description: as §1, §2

FOB [fold over background] | Binder
1.3 | B1
1.3 | B2
1.2 | B3
1.2 | B4
1.3 | B7
1.2 | B8
1.4 | B5
1.4 | B9
1.2 | B10
1.2 | B6
1.4 | B11

biological target: T3, mouse SIRPα on cells; assay: flow cytometry; remark: another data set of the same source
Description: as §1, §2

FOB [fold over background] | Binder
1.5 | B1
1.2 | B2
0.9 | B3
1.7 | B4
1.7 | B7
1.7 | B8
1 | B5
1.1 | B9
1.2 | B10
1 | B6
1.5 | B11

biological target: T7, human SIRPβ1 domain 1 (D1) Fc fusion (human, UniProt O00241 30-148); assay: Octet, IgG avid
T7 construct: Made in HEK293/T cells with a heterologous signal peptide; also called Human SIRPβ1 D1-Fc; Human SIRPβ1-Fc; not shown: C-terminal human IgG1 Fc
T7 sequence (O00241 30-148 limits assumed): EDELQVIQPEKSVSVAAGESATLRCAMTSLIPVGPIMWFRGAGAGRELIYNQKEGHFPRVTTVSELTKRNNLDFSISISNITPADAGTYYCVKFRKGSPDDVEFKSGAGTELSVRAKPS

Kd [nM] | Binder
10.3 | B7
4.39 | B8
21.4 | B9
7.13 | B10
1.3 | B6
7.87 | B11
